From publication PMC13071878 (Journal of Medicinal Chemistry, 2026)
Bridges are numbered along the chain shown (N, C = ends). Where no end group is shown, it is not given here.

B1: synthetic 'two-ring' macrocyclic peptide GR3.1.2 (isomer of GR3.1) (peptide)
peptide: ACFLRCHRDVKCWLWCSG
modifications: also: two-ring macrocycle, isomer of GR3.1, ring type and connectivity not given here

Key:
[1] = target: T1, human angiotensin-converting enzyme 1 (human, UniProt P12821 30-1256); experiment: enzyme inhibition assay (fluorogenic substrate); 0.25 nM hACE1, 10 μM Mca-Arg-Pro-Pro-Gly-Phe-Ser-Ala-Phe-Lys(Dnp)-OH, MP 0.03 nM to 100 μM; 10 mM Tris-HCl pH 7.4, 300 mM NaCl, 100 μM ZnCl2, 0.1% BSA, 0.1% DMSO; details: both partners purified
T1 construct: also called hACE1; human ACE1 enzyme

[2] = target: T2, human angiotensin-converting enzyme 1 (hACE1) (human, UniProt P12821 30-1256); experiment: enzyme inhibition assay; 0.25 nM hACE1, 10 uM fluorogenic substrate Mca-Arg-Pro-Pro-Gly-Phe-Ser-Ala-Phe-Lys(Dnp)-OH, dilutions of inhibitor; 10 mM Tris-HCl pH 7.4, 300 mM NaCl, 100 uM ZnCl2, 0.1% BSA, 0.1% DMSO; details: both partners purified
[3] = target: T3, biotinylated extracellular catalytic domain of human angiotensin-converting enzyme 2 (hACE2), produced in … (human, UniProt Q9BYF1 19-615); experiment: flow cytometry on cells; yeast surface titration: yeast cells displaying the ligand incubated with soluble biotinylated hACE2 (100 pM to 3 uM), at least 1 h, room temperature (25 °C, pH 7.4); binding/display MFI, one-site fit; apparent KD; details: one partner purified
T3 construct: also called biotinylated hACE2

[4] = target: extracellular catalytic domain of human angiotensin-converting enzyme 2 (hACE2), produced in mammalian cells (human, UniProt Q9BYF1 19-615); experiment: ITC; MicroCal iTC200, 25 °C, 100 mM Tris pH 7.4, 200 mM NaCl; hACE2 in the cell (6 or 7 uM), peptide in the syringe (60 or 70 uM); single-site model; details: both partners purified
[5] = target: T2, human angiotensin-converting enzyme 1 …; experiment: enzyme inhibition assay; details: both partners purified

T2 sequence (P12821 30-1256): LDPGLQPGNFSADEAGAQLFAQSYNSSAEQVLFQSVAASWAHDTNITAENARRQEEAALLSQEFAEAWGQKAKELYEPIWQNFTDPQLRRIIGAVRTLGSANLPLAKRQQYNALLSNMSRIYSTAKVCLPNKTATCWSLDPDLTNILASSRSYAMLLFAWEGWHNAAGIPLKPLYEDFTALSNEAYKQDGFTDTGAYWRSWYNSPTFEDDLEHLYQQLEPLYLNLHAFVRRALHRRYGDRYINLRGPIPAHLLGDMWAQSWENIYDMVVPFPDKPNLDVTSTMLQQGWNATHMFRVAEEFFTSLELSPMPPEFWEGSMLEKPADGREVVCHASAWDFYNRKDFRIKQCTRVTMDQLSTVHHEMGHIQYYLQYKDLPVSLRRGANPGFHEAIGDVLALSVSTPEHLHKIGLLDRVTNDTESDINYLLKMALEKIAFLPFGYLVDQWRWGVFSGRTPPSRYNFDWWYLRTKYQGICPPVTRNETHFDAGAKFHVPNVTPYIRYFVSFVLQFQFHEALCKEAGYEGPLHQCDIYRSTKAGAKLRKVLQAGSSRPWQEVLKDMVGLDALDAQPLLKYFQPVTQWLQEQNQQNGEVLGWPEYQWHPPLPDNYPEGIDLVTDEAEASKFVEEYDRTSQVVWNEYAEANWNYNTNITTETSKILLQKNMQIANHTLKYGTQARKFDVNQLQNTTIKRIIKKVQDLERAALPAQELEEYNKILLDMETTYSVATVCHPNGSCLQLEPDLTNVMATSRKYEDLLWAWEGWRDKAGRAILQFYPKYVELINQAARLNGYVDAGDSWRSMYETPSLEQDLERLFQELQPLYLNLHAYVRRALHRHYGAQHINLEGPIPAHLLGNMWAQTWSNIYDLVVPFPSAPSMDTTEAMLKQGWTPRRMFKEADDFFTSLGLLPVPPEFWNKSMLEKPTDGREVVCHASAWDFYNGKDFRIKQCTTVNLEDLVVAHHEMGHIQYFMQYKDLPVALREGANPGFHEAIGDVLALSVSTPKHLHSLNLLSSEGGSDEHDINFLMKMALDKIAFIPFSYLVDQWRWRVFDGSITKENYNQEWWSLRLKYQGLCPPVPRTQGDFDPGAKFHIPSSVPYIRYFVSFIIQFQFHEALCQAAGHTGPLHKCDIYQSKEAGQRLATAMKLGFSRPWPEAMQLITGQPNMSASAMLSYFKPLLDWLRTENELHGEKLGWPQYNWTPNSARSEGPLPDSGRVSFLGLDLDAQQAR
T1 sequence (P12821 30-1256): as above
Chain of extracellular catalytic domain of human angiotensin-converting enzyme 2 (hACE2), produced in mammalian cells (Q9BYF1 19-615): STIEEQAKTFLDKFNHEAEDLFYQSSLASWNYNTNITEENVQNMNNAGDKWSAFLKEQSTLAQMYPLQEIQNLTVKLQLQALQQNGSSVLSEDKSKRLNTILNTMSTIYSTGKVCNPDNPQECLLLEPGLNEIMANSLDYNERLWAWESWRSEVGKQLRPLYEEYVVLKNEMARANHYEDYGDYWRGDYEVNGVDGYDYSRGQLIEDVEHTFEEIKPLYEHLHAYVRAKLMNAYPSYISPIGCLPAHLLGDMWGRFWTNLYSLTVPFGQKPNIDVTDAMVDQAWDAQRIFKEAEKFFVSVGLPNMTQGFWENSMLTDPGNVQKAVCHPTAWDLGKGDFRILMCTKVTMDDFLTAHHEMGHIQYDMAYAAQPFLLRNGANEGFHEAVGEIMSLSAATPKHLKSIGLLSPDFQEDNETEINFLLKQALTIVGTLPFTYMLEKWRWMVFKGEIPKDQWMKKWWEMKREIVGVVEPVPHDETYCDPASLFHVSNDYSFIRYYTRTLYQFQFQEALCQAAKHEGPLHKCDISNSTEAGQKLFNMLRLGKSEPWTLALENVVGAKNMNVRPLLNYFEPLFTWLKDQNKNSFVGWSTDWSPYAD
T3 sequence (Q9BYF1 19-615): as above

| Binder | Ki [1] [µM] | IC50 [2] [µM] | further results |
| --- | --- | --- | --- |
| ACFFIGFNRWICSG (also called synthetic GR1.1) [GR1.1, synthetic one-ring macrocyclic peptide] | > 100 | – | – |
| ACFLRCHRDVKCWLWCSG (also called synthetic GR3.1.2) [GR3.1.2, synthetic isomer 2 of the two-ring macrocyclic peptide GR3.1] | > 100 | – | – |
| ACFFIGFNRWICSG (also: one-ring macrocycle, ring type and places not given here) [synthetic 'one-ring' macrocyclic peptide GR1.1] | – | > 100 | – |
| B1 | – | > 100 | – |
| ACEPLGFNRWICSG (also: one-ring macrocycle, closure not given here) [yeast-displayed 'one-ring' macrocyclic peptide GR1.3] | – | – | Kd [3]: 0.0538 µM |
| ACEPLGYNLFLCSG (also: one-ring macrocycle, ring type and places not given here) [synthetic 'one-ring' macrocyclic peptide GR1.4] | – | > 100 | stoichiometry N [4]: 1.4 sites |
| ACEPLGYNLFLCSG (also called synthetic GR1.4) [GR1.4, synthetic one-ring macrocyclic peptide] | > 100 | – | – |
| GDYSHCSPLRYYPWWKCTYPDPEGGG (disulfide 6-17 (inferred), source: bought: Selleck Chemicals LLC) [DX600, disulfide-constrained cyclic peptide inhibitor of hACE2] | – | – | IC50 [5]: > 100 µM; Ki [5]: > 100 µM |
